Measurements: patent publication US20160185837A1 (AstraZeneca / MedImmune, published 2016)
Changes are numbered by the printed parent chain. Ends that are not written are not given here.

Legend:
Test in all cases: cell-based or functional assay
[1] = molecular target: T1, mouse GIP receptor (mouse, UniProt Q0P543 19-460)
T1 sequence (looked up): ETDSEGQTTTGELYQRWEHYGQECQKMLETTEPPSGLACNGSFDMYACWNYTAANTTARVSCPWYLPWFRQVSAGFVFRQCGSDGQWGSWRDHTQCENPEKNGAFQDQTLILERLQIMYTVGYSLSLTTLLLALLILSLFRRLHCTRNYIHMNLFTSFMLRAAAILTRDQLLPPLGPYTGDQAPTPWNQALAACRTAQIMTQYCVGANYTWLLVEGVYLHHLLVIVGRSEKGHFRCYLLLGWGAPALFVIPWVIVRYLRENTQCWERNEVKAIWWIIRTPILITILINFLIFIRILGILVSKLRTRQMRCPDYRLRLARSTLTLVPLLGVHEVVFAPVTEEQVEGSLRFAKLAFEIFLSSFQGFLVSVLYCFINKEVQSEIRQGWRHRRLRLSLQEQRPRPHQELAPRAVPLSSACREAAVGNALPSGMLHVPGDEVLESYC

[2] = molecular target: T2, rat GIP receptor (rat, UniProt P43219 19-455)
T2 sequence (looked up): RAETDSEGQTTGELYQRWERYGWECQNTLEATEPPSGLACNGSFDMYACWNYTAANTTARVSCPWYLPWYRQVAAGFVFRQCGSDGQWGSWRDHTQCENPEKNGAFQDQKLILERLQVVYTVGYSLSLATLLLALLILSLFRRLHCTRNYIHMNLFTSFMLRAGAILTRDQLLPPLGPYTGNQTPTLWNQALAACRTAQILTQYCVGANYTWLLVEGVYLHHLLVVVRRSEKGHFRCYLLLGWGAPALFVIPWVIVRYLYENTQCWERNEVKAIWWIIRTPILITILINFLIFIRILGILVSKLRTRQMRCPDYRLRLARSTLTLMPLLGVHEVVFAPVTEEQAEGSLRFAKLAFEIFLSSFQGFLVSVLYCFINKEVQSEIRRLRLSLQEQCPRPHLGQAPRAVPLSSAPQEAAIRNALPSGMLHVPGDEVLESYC

[3] = molecular target: T3, mouse GLP-1 receptor (mouse, UniProt O35659 22-463)
T3 sequence (looked up): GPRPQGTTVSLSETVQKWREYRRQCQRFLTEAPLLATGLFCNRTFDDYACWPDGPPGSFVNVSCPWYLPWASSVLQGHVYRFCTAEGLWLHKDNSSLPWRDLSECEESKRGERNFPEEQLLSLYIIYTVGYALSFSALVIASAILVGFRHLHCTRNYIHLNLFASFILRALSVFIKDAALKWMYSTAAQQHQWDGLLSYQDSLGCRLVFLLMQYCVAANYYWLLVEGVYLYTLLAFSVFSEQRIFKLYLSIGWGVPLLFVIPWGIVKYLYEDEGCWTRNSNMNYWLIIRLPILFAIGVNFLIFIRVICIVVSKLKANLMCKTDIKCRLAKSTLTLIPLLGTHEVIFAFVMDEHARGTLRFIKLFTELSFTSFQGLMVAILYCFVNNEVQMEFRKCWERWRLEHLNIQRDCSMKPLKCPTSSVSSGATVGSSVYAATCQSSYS

[4] = molecular target: T4, rat GLP-1 receptor (rat, UniProt P32301 22-463)
T4 sequence (looked up): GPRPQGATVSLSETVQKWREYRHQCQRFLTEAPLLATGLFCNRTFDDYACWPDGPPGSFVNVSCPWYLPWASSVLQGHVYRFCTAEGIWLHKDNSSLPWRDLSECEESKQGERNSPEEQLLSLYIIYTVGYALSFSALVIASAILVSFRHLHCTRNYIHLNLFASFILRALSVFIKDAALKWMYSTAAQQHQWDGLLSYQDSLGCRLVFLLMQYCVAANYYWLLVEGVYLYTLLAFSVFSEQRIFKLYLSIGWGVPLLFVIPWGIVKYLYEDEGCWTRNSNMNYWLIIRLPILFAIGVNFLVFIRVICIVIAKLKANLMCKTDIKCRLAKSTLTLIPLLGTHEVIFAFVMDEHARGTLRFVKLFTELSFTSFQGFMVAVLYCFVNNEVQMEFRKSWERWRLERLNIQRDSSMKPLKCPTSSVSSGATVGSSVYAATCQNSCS

[5] = molecular target: human glucagon receptor (human, UniProt P47871 26-477)
[6] = molecular target: T5, human GIP receptor (human, UniProt P48546 22-466)
T5 sequence (looked up): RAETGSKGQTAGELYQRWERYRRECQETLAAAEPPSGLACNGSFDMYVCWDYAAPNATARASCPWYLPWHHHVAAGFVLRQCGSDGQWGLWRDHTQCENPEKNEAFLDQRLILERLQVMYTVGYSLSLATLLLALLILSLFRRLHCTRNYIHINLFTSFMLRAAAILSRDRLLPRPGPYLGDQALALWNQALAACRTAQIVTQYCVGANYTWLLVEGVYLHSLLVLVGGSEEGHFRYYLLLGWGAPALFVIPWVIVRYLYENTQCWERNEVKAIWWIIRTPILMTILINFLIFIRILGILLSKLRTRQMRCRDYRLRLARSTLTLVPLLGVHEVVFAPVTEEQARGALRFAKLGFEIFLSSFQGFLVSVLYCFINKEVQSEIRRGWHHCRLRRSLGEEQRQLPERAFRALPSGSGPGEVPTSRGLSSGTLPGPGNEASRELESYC

[7] = molecular target: human GLP-1 receptor (human, UniProt P43220 24-463)

B1: IP222 (Fc fusion)
chain: YSEGTFTSDYSKLLEEEAVRLFIEWLKNGGPSSGAPPPSAAAGGSGSTASSGSGSATGGGGAATHTCPPCPAPEF
- cAMP EC50 [1]: 160 nM
- cAMP EC50 [2]: 0.72 nM
- cAMP EC50 [3]: 0.46 nM
- cAMP EC50 [4]: 0.058 nM
- cAMP EC50 [5]: 590 nM
- cAMP EC50 [6]: 0.015 nM
- cAMP EC50 [7]: 0.14 nM

B2: IP235 (Fc fusion)
chain: YSEGTFTSDYSKLLEEEAVRLFIEWLVKGPGGGGGSGGGGSATHTCPPCPAPEF
modifications: cysteine pairing not given here; also: fused to IgG1-TM Fc
- cAMP EC50 [1]: 2600 nM
- cAMP EC50 [2]: 0.65 nM
- cAMP EC50 [3]: 0.6 nM
- cAMP EC50 [4]: 0.037 nM
- cAMP EC50 [5]: > 9900 nM
- cAMP EC50 [6]: 0.021 nM
- cAMP EC50 [7]: 0.23 nM

B3: IP257 (Fc fusion)
chain: SEGTFTSDYSKLLEEEAVRLFIEWLVKGPGGGGGSGGGGSGGGGSGGGGSATHTCPPCPAPEF
- cAMP EC50 [1]: 4300 nM
- cAMP EC50 [2]: 190 nM
- cAMP EC50 [3]: 46 nM
- cAMP EC50 [4]: 1.3 nM
- cAMP EC50 [6]: 180 nM
- cAMP EC50 [7]: 7.2 nM

B4: IP383 (Fc fusion)
chain: YSEGTFTSLYRILLEEEAVRLFIEWLLAGGGGGGSGGGGSGGGGSGGGGSATHTCPPC
- cAMP EC50 [1]: 46.7 nM
- cAMP EC50 [2]: 0.976 nM
- cAMP EC50 [3]: 20.1 nM
- cAMP EC50 [4]: 0.13 nM
- cAMP EC50 [5]: > 1610 nM
- cAMP EC50 [7]: 0.19 nM

B5: IP024 (Fc fusion)
chain: YSEGTFTSDYSKLLEEEAVRLFIEWLLAGAAAGGSGSTASSGSGSATGGGGAATHTCPPCPAPEF
- cAMP EC50 [2]: 0.047 nM
- cAMP EC50 [3]: 1.1 nM
- cAMP EC50 [4]: 0.083 nM
- cAMP EC50 [5]: 17 nM
- cAMP EC50, Batch 2 [5]: 25 nM
- cAMP EC50 [6]: 0.0071 nM
- cAMP EC50, Batch 2 [6]: 0.01 nM
- cAMP EC50 [7]: 0.095 nM
- cAMP EC50, Batch 2 [7]: 0.16 nM

B6: IP124 (Fc fusion)
chain: B5 chain with L27V, A28K
- cAMP EC50 [1]: 130 nM
- cAMP EC50 [2]: 0.31 nM
- cAMP EC50 [3]: 0.42 nM
- cAMP EC50 [4]: 0.062 nM
- cAMP EC50 [6]: 0.009 nM
- cAMP EC50 [7]: 0.091 nM

B7: IP244 (Fc fusion)
chain: B5 chain with Y10V, A31P, A32P
- cAMP EC50 [1]: 3.6 nM
- cAMP EC50 [2]: 0.17 nM
- cAMP EC50 [3]: 0.79 nM
- cAMP EC50 [4]: 0.066 nM
- cAMP EC50 [6]: 0.042 nM
- cAMP EC50 [7]: 0.18 nM

B8: IP127 (Fc fusion)
chain: YSEGTFTSDVSSYLEEEAVREFIEWLLAGGAAAGGSGSTASSGSGSATGGGGAATHTCPPCPAPEF
- cAMP EC50 [2]: 17 nM
- cAMP EC50 [3]: 0.6 nM
- cAMP EC50 [4]: 0.047 nM
- cAMP EC50 [6]: 0.12 nM
- cAMP EC50 [7]: 0.087 nM

B9: IP147 (Fc fusion)
chain: YSEGTFTSDYSKLLEEEAVRLFIEWLVKGPAPPGGSGSTASSGSGSATGGGGAATHTCPPCPAPEF
- cAMP EC50 [2]: 6.8 nM
- cAMP EC50 [3]: 8.5 nM
- cAMP EC50 [4]: 1.1 nM
- cAMP EC50 [5]: 130 nM
- cAMP EC50 [6]: 0.0037 nM
- cAMP EC50 [7]: 0.067 nM

B10: IP228 (Fc fusion)
chain: B9 chain with V27K, K28N, P30G, P32A, P33A
- cAMP EC50 [2]: 7 nM
- cAMP EC50 [3]: 0.69 nM
- cAMP EC50 [4]: 0.096 nM
- cAMP EC50 [5]: 1400 nM
- cAMP EC50 [6]: 0.014 nM
- cAMP EC50 [7]: 0.16 nM

B11: IP245 (Fc fusion)
chain: B9 chain with K12I, L13A, L14M, E15D, P32A, P33A
- cAMP EC50 [1]: 190 nM
- cAMP EC50 [2]: 48 nM
- cAMP EC50 [3]: 4.8 nM
- cAMP EC50 [4]: 0.4 nM
- cAMP EC50 [6]: 0.15 nM
- cAMP EC50 [7]: 0.46 nM

B12: IP149 (Fc fusion)
chain: B9 chain with E3Q
- cAMP EC50, Batch 2 [1]: 53 nM
- cAMP EC50, Batch 2 [2]: 0.19 nM
- cAMP EC50, Batch 2 [3]: 0.37 nM
- cAMP EC50, Batch 2 [4]: 0.031 nM
- cAMP EC50 [5]: 0.2 nM
- cAMP EC50, Batch 2 [5]: 0.23 nM
- cAMP EC50 [6]: 0.0081 nM
- cAMP EC50, Batch 2 [6]: 0.012 nM
- cAMP EC50 [7]: 0.07 nM
- cAMP EC50, Batch 2 [7]: 0.12 nM

B13: IP249 (Fc fusion)
chain: B8 chain with V10Y, S12K, Y13L, E21L, G29Q, G30K
- cAMP EC50 [1]: 180 nM
- cAMP EC50 [2]: 0.19 nM
- cAMP EC50 [3]: 15 nM
- cAMP EC50 [4]: 0.15 nM
- cAMP EC50 [6]: 0.019 nM
- cAMP EC50 [7]: 2.6 nM

B14: IP236 (Fc fusion)
chain: YSEGTFTSDYSKLLEEEAVRLFIEWLVKGPGGGGGSGGGGSGGGGSATHTCPPCPAPEF
modifications: cysteine pairing not given here; also: fused to IgG1-TM Fc
- cAMP EC50 [1]: 460 nM
- cAMP EC50 [2]: 0.21 nM
- cAMP EC50 [3]: 0.3 nM
- cAMP EC50 [4]: 0.024 nM
- cAMP EC50 [5]: > 5500 nM
- cAMP EC50 [6]: 0.016 nM
- cAMP EC50 [7]: 0.15 nM
